The record followed here is patent publication US20060166324, “Screening tools for discovery of novel anabolic agents” (USA as represented by the Dept. of Veterans Affairs, published 2006).

The test system of data set [1] is Glucocorticoid receptor (Rattus norvegicus). The experiment in a line: cell_activity. The following applies: HepG2 luciferase reporter, dexamethasone. (In general: Reporter assays use an easily measured gene product as a stand-in for the process of interest.)
The test system of data set [2] is Androgen receptor (full length) (Homo sapiens). Kind of data set: cell_activity. The following applies: HepG2 luciferase reporter, testosterone.
The target of data set [3] is T1, Androgen receptor DNA-binding domain (Homo sapiens, UniProt P10275 P10275:560-632). Kind of data set: EMSA; band weaker than SRE; diminished by excess cold SRE. The note with it: tags: GST fusion (pGEX 4T-1 hAR2, E. coli BL21); label: 32P. An excerpt:
(§1) In order to more directly test whether the AR bound to sequences with ARE1 and ARE2, binding of a GST-tagged version of recombinant AR DNA-binding domain to radiolabeled probes was examined using electrophoretic mobility shift assays.
In general terms: Mobility shift assays separate free from complexed probe on a gel.

The target in data set [4] is T1, Androgen receptor DNA-binding domain. Kind of data set: EMSA; band consistently weaker than SRE; greatly diminished by excess cold SRE. The note with it: tags: GST fusion (pGEX 4T-1 hAR2, E. coli BL21); label: 32P.
Description: as §1

For data set [5] the target is unchanged. The experiment in a line: EMSA; strong band, greatly diminished by excess unlabeled probe. The following applies: tags: GST fusion (pGEX 4T-1 hAR2, E. coli BL21); label: 32P.
Description: as §1

T1 sequence (P10275 560-632, one chain of several): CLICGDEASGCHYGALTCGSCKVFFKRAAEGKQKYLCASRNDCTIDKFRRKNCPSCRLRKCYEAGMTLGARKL

For “pGL3-13a IGF-1 promoter insert -1370 to -1250 (ARE2)”, the activity (fold induction) in data set [1] is 5; in data set [2] it was > 20.

Consider “pGL3-22 IGF-1 promoter insert -1508 to -1402 (ARE1)”, for which the activity (fold induction) in data set [1] is < 2; in data set [2], > 5.

Regarding “pGL3-32 IGF-1 promoter insert -1429 to -1250 (ARE1 and ARE2)”, the activity (fold induction) in data set [1] came to 5; in data set [2] (25-fold plateau in FIG. 15), 30.

B1: IGF-1 ARE1 probe (dsDNA)
DNA 1: GACTTGACCATATCTTATTCCTCTTTG
DNA 2: CAAAGAGGAATAAGATATGGTCAAGTC
Regarding B1, the binding result in data set [3] was “binds”.

B2: IGF-1 ARE2 probe (dsDNA)
DNA 1: TTGTAGTTGGGCACATAGTAGAGCTCA
DNA 2: TGAGCTCTACTATGTGCCCAACTACAA
On to B2, for which, in data set [4], the binding result was “binds”.

B3: consensus SRE probe (dsDNA)
DNA 1: ATGCATTGGGTACATCTTGTTCACATA
DNA 2: TATGTGAACAAGATGTACCCAATGCAT
For the molecule B3, the binding result in data set [5] was “binds”.
